Target: T1, recombinant E. coli human IL4 (non-glycosylated) (human, UniProt P05112 25-153)
T1 sequence (looked up): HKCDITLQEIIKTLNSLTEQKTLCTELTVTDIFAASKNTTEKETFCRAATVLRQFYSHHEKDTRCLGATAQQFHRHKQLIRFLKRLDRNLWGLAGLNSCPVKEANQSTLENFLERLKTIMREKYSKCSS
Experiment: cell-based or functional assay

B1: humanized 3B9 (IgG1) (antibody, V domains shown)
VH: QVTLRESGPALVKPTQTLTLTCTFSGFSLSTSGMGVSWIRQPPGKGLEWLAHIYWDDDKRYNPSLKSRLTISKDTSRNQVVLTMTNMDPVDTATYYCARRETVFYWYFDVWGRGTPVTVSS
VL: IVMTQSPDSLAVSLGERATINCKASQSVDYDGDSYMNWYQQKPGQPPKLLIYAASNLESGVPDRFSGSGSGTDFTLTISSLQAEDVAVYYCQQSNEDPPRFGGGTKVEIKR
B cell proliferation (3H thymidine), IC50: 47 pM
